From US20160075790A1 (Bristol-Myers Squibb, published 2016)
Where “and” joins values, the source holds several entries; their conditions need not be identical. Identical values can stand only once. Like-named read-outs stand apart in the source and are kept apart here.

T1: human CD40L, membrane-bound on cells (human, UniProt P29965 1-261)
T1 sequence: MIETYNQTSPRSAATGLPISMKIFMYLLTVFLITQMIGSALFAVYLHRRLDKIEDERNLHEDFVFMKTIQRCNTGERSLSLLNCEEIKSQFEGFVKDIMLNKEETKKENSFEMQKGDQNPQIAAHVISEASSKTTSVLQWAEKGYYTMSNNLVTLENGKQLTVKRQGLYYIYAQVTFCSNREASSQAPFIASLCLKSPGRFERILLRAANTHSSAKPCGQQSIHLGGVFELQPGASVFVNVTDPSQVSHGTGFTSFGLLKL

T2: human isoleucine zipper-CD40L (IZ-hCD40L) (human, UniProt P29965 113-261)
T2 sequence: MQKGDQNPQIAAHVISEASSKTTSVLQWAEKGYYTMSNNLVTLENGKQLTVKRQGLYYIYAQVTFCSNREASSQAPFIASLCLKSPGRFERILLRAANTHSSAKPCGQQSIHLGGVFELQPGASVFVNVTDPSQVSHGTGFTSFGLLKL


Experiments:
Assay in all cases: cell-based or functional assay
[1] = target: T1, human CD40L, membrane-bound on cells
[2] = target: human isoleucine zipper-CD40L (IZ-hCD40L) (human) (UniProt P29965)
[3] = target: T2, human isoleucine zipper-CD40L …
[4] = target: T1, human CD40L, membrane-bound on cells; remark: listed apart in the source

CHO-hCD40L-driven DC Activation IL-12 EC50 [1] [nM] | CHO-hCD40L-driven Human B Cell Proliferation EC50 [1] [nM] | T-B cell MLR EC50 [1] | hIZCD40L-driven Human B Cell Proliferation EC50 [2] [nM] | hIZCD40L-driven Human B Cell Proliferation EC50 [3] | CHO-hCD40L-driven DC Activation IL-12 EC50 [4] [nM] | T-B cell MLR EC50 [4] [nM] | CHO-hCD40L-driven DC Activation IL-6 EC50 [1] [nM] | CHO-hCD40L-driven DC Activation TNF EC50 [1] [nM] | T-B cell MLR IL-6 EC50 [1] | Binder
2.8 | 60 | 45 nM | 4 | – | – | – | – | – | – | 2h503-1 Fc (Fc fusion, not shown: a dimerising Fc or GST) DIQMTQSPSSLSASVGDRVTITCRASHHIQRYLSWYQQKPGKAPKLLILWGSQLQSGVPSRFSGSGSGTDFTLTISSLQPEDFATYYCGQWWAPPQTFGQGTKVEIKR
14 | > 130 | 244 nM | 13 | – | – | – | – | – | – | 2h116-1320-Fc (Fc fusion, not shown: a dimerising Fc or GST) DIQMTQSPSSLSAYVGDRVTITCRASQPIGPDLLWYQQKPGKAPKLLIYQTSILRSGVPSRFSGSGSETDFTLTISNLQPEDFAKYYCQQYWAFPVTFGQGTKVVIKR
0.13 | 0.7 | 6 nM | 1 | – | – | – | – | – | – | 2h719-2 Fc (Fc fusion, not shown: a dimerising Fc or GST) EVQLLESGGGLVQPGGSLRLSCAASGFTFKRYEMMWVRQAPGKGLEWVSSISSDGSFTYYADSVKGRFTISRDNSKNTLYLQMNSLRAEDTAVYYCAEPFTEFDYWGHGTLVTVSS
0.22 | 3 | 1.9 nM | 0.6 | – | – | – | – | – | – | 2h572-6 Fc (Fc fusion, not shown: a dimerising Fc or GST) EVQLLESGGGLVQPGGSLRLSCAASGFTFNWQLMGWVRQAPGKGLEWVSGIEGPGDVTYYADSVKGRFTISRDNSKNTLYLQMNSLRAEDTAVYYCVKVGKESNSDYRGQGTLVTVSS
– | – | – | – | 103 nM | 246 | – | – | – | – | BMS2h-572-630 (other) VH: EVQLLESGGGLVQPGGSLRLSCAASGFTFKWQLMGWVRQAPGKGLEWVSGIEGPGDVTYYADSVKGRFTISRDNSKNTLYLQMNSLRAEDTAVYYCVKVGKDAKSDYRGQGTLVTVSS
– | – | – | – | 93 nM | 135 | > 7000 | – | – | – | BMS2h-572-614 (other) VH: EVQLLESGGGLVQPGGSLRLSCAASGFTFNWQLMGWVRQAPGKGLEWVSGIEGPGDVTYYADSVKGRFTISRDNSKNTLYLQMNSLRAEDTAVYYCVKVGKDAKSDYRGQGTLVTVSS
– | – | – | – | 96 nM | 152 | > 7000 | – | – | – | BMS2h-572-608 (other) VH: EVQLLESGGGLVQPGGSLRLSCAASGFTFNWELMGWARQAPGKGLEWVSGIEGPGDVTYYADSVKGRFTISRDNSKNTLYLQMNSLRAEDTAVYYCVKVGKESNSDYRGQGTLVTVSS
2.3 | 1 | 0.161 nM | 5 | – | – | – | 1.5 | 2.9 | 0.13 nM | 2h572-633-CT-Fc SP5 (Fc fusion, not shown: a dimerising Fc or GST) EVQLLESGGGLVQPGGSLRLSCAASGFTFNWELMGWARQAPGKGLEWVSGIEGPGDVTYYADSVKGRFTISRDNSKNTLYLQMNSLRAEDTAVYYCVKVGKDAKSDYRGQGTLVTVSS
– | – | – | – | 109 nM | 207 | > 7000 | – | – | – | BMS2h-572-610 (other) VH: EVQLLESGGGLVQPGGSLRLSCAASGFTFNWQLMGWVRQAPGKGLEWVSGIEGPGDVTYYADSVKGRFTISRDNSKNTLYLQMNSLRAEDTAVYYCVKVGKDSKSDYRGQGTLVTVSS
– | – | – | – | 301 nM and 293 nM | 281 | > 7000 | – | – | – | BMS2h-572-622 (other) VH: EVQLLESGGGLVQPGGSLRLSCAASGFTFNWQLMGWVRQAPGKGLEWVSGIEGPGDVTYYADSVKGRFTISRDNSKNTLYLQMNSLRAEDTAVYYCVKVGKDSTSDYRGQGTLVTVSS
1.1 | 2 | 0.48 nM and 0.474 nM | 0.98 | – | – | – | – | – | 0.22 nM and 0.11 nM | 2h572-619-N297Qlong Fc (Fc fusion, not shown: a dimerising Fc or GST) EVQLLESGGGLVQPGGSLRLSCAASGFTFNWQLMGWVRQAPGKGLEWVSGIEGPGDVTYYADSVKGRFTISRDNSKNTLYLQMNSLRAEDTAVYYCVKVGKDSRSDYRGQGTLVTVSS
0.445 | 2.5 | 0.16 nM | 2 | – | – | – | – | – | 0.11 nM | 2h572-635 Fc (Fc fusion, not shown: a dimerising Fc or GST) EVQLLESGGGLVQPGGSLRLSCAASGFTFNWELMGWARQAPGKGLEWVSGIEGPGDVTYYADSVKGRFTISRDNSKNTLYLQMNSLRAEDTAVYYCVKVGKDSKSDYRGQGTLVTVSS
1.2 | 1 | 0.226 nM and 0.216 nM | 0.9 | – | – | – | – | – | 0.1 nM | 2h572-619-N297Qshort Fc (Fc fusion, not shown: a dimerising Fc or GST) EVQLLESGGGLVQPGGSLRLSCAASGFTFNWQLMGWVRQAPGKGLEWVSGIEGPGDVTYYADSVKGRFTISRDNSKNTLYLQMNSLRAEDTAVYYCVKVGKDSRSDYRGQGTLVTVSS
– | – | – | – | 204 nM and 340 nM | 608 | > 7000 | – | – | – | BMS2h-572-616 (other) VH: EVQLLESGGGLVQPGGSLRLSCAASGFTFNWQLMGWVRQAPGKGLEWVSGIEGPGDVTYYADSVKGRFTISRDNSKNTLYLQMNSLRAEDTAVYYCVKVGKESKSDYRGQGTLVTVSS
0.34 | 3 | 0.15 nM | 3.5 | – | – | – | – | – | 0.11 nM | 2h572-633 Fc (Fc fusion, not shown: a dimerising Fc or GST) EVQLLESGGGLVQPGGSLRLSCAASGFTFNWELMGWARQAPGKGLEWVSGIEGPGDVTYYADSVKGRFTISRDNSKNTLYLQMNSLRAEDTAVYYCVKVGKDAKSDYRGQGTLVTVSS
0.93 | 2 | – | 1 | – | – | – | – | – | – | 2h572-608-N297Qshort Fc (Fc fusion, not shown: a dimerising Fc or GST) EVQLLESGGGLVQPGGSLRLSCAASGFTFNWELMGWARQAPGKGLEWVSGIEGPGDVTYYADSVKGRFTISRDNSKNTLYLQMNSLRAEDTAVYYCVKVGKESNSDYRGQGTLVTVSS
1.8 | 2 | 0.4 nM | 1.5 | – | – | – | – | – | 0.3 nM | 2h572-619-Ctshort Fc (Fc fusion, not shown: a dimerising Fc or GST) EVQLLESGGGLVQPGGSLRLSCAASGFTFNWQLMGWVRQAPGKGLEWVSGIEGPGDVTYYADSVKGRFTISRDNSKNTLYLQMNSLRAEDTAVYYCVKVGKDSRSDYRGQGTLVTVSS
0.42 | 3.5 | 0.23 nM | 3 | – | – | – | – | – | 0.19 nM | 2h572-634 Fc (Fc fusion, not shown: a dimerising Fc or GST) EVQLLESGGGLVQPGGSLRLSCAASGFTFNWELMGWARQAPGKGLEWVSGIEGPGDVTYYADSVKGRFTISRDNSKNTLYLQMNSLRAEDTAVYYCVKVGKDSRSDYRGQGTLVTVSS
– | – | – | – | 157 nM and 189 nM | 338 | > 7000 | – | – | – | BMS2h-572-617 (other) VH: EVQLLESGGGLVQPGGSLRLSCAASGFTFNWQLMGWVRQAPGKGLEWVSGIEGPGDVTYYADSVKGRFTISRDNSKNTLYLQMNSLRAEDTAVYYCVKVGRDSKSDYRGQGTLVTVSS
– | – | – | – | 108 nM | 230 | – | – | – | – | BMS2h-572-631 (other) VH: EVQLLESGGGLVQPGGSLRLSCAASGFTFKWQLMGWVRQAPGKGLEWVSGIEGPGDVTYYADSVKGRFTISRDNSKNTLYLQMNSLRAEDTAVYYCVKVGKDSRSDYRGQGTLVTVSS
– | – | – | – | 90 nM | 188 | > 7000 | – | – | – | BMS2h-572-619 (other) VH: EVQLLESGGGLVQPGGSLRLSCAASGFTFNWQLMGWVRQAPGKGLEWVSGIEGPGDVTYYADSVKGRFTISRDNSKNTLYLQMNSLRAEDTAVYYCVKVGKDSRSDYRGQGTLVTVSS
– | – | – | – | 181 nM and 261 nM | 280 | > 7000 | – | – | – | BMS2h-572-623 (other) VH: EVQLLESGGGLVQPGGSLRLSCAASGFTFNWQLMGWVRQAPGKGLEWVSGIEGPGDVTYYADSVKGRFTISRDNSKNTLYLQMNSLRAEDTAVYYCVKVGKESSSDYRGQGTLVTVSS
